Test results published in paper PMC11143692.

Molecular target: Flag-eIF4E tagged with homotetrameric tag 6 (HOTag6), the eIF4E part of TORSEL (UniProt P06730)
Chain of UniProt P06730 (P06730 whole entry): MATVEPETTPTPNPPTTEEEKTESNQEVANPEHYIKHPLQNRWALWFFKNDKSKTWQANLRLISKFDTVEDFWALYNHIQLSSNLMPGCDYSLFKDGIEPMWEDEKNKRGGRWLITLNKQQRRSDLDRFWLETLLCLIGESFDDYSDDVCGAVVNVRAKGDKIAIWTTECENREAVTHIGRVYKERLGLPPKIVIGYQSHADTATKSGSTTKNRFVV

Substance: HA-tagged 4EBP1 tagged with mCherry and homohexameric tag 3 (HOTag3), the 4EBP1 part of TORSEL (from UniProt Q13541 1-118) (natural protein)
- TORSEL fluorescent puncta in living U2OS cells when mTORC1 is suppressed by serum deprivation, EAA starvation or rapamycin; diffuse under normal culture conditions; 50-90% of cells with visible puncta: 50 to 90 % of cells
